Legend:
Assay type in all cases: physicochemical
[1] = Dextran ratio optimization: radio-TLC purity; settings: 25 μCi/ml
Experimental: (§1) The mixture was kept at room temperature (25° C.). At different time points, radioactive components of the formulated dose were measured by radio-TLC as described in the table below: […]

[2] = Radioactivity concentration optimization: radio-TLC purity; settings: 100 mM sodium ascorbate pH 5.80, 0.05 mg/ml DTPA, 25° C.
Experimental: The mixture was kept at room temperature (25° C.) and protected from light to prevent photodegradation. At different time points, purity of [^225Ac]Ac-DOTA-TATE in the formulated dose were measured by radio-TLC as described in the table below: […]

[3] = Sodium ascorbate concentration optimization: radio-TLC purity; settings: 25° C.
Experimental: as §1

## (2,2′,2″-(10-(2-4(R)-1-(((4R,7S,10S,13R,16S,19R)-13-((1H-indol-3-yl)methyl)-10-(4-aminobutyl)-4-(((1S,2R)-1-carboxy-2-hydroxypropyl)carbamoyl)-16-(4-hydroxybenzyl)-7-((R)-1-hydroxyethyl)-6,9,12,15,18-pentaoxo-1,2-dithia-5,8,11,14,17-pentaazacycloicosan-19-yl)amino)-1-oxo-3-phenylpropan-2-yl)amino)-2-oxoethyl)-1,4,7,10-tetraazacyclododecane-1,4,7-triyl)triacetate; actinium-225(3+)) [[^225Ac]Ac-DOTA-TATE]
[1]; Dextran 6% w/w, 144 hours, 100 mM sodium ascorbate, 0.05 mg/ml DTPA, saline, pH 5.80, 25° C.
  Percentage of ^225Ac present in [^225Ac]Ac-DOTA-TATE: 96.41%
[1]; Dextran 10% w/w, no L-ascorbate, 0 hour, 25° C.
  Percentage of ^225Ac present in [^225Ac]Ac-DOTA-TATE: 100%
[1]; Dextran 10% w/w, no L-ascorbate, 24 hours, 25° C.
  Percentage of ^225Ac present in [^225Ac]Ac-DOTA-TATE: 95.38%
[1]; Dextran 10% w/w, no L-ascorbate, 48 hours, 25° C.
  Percentage of ^225Ac present in [^225Ac]Ac-DOTA-TATE: 93.36%
[1]; Dextran 10% w/w, no L-ascorbate, 72 hours, 25° C.
  Percentage of ^225Ac present in [^225Ac]Ac-DOTA-TATE: 89.11%
[1]; Dextran 10% w/w, no L-ascorbate, 96 hours, 25° C.
  Percentage of ^225Ac present in [^225Ac]Ac-DOTA-TATE: 87.20%
[1]; Dextran 10% w/w, 0 hour, 100 mM sodium ascorbate, 0.05 mg/ml DTPA, saline, pH 5.80, 25° C.
  Percentage of ^225Ac present in [^225Ac]Ac-DOTA-TATE: 99.67%
[1]; Dextran 10% w/w, 24 hours, 100 mM sodium ascorbate, 0.05 mg/ml DTPA, saline, pH 5.80, 25° C.
  Percentage of ^225Ac present in [^225Ac]Ac-DOTA-TATE: 99.02%
[1]; Dextran 10% w/w, 48 hours, 100 mM sodium ascorbate, 0.05 mg/ml DTPA, saline, pH 5.80, 25° C.
  Percentage of ^225Ac present in [^225Ac]Ac-DOTA-TATE: 98.75%
[1]; Dextran 10% w/w, 72 hours, 100 mM sodium ascorbate, 0.05 mg/ml DTPA, saline, pH 5.80, 25° C.
  Percentage of ^225Ac present in [^225Ac]Ac-DOTA-TATE: 97.83%
[1]; Dextran 10% w/w, 96 hours, 100 mM sodium ascorbate, 0.05 mg/ml DTPA, saline, pH 5.80, 25° C.
  Percentage of ^225Ac present in [^225Ac]Ac-DOTA-TATE: 96.42%
[1]; Dextran 10% w/w, 120 hours, 100 mM sodium ascorbate, 0.05 mg/ml DTPA, saline, pH 5.80, 25° C.
  Percentage of ^225Ac present in [^225Ac]Ac-DOTA-TATE: 96.58%
[1]; Dextran 10% w/w, 144 hours, 100 mM sodium ascorbate, 0.05 mg/ml DTPA, saline, pH 5.80, 25° C.
  Percentage of ^225Ac present in [^225Ac]Ac-DOTA-TATE: 95.37%
[2]; 15 μCi/ml, 0 hour
  Percentage of ^225Ac present in [^225Ac]Ac-DOTA-TATE: 99.37%
[2]; 15 μCi/ml, 24 hours
  Percentage of ^225Ac present in [^225Ac]Ac-DOTA-TATE: 96.92%
[2]; 15 μCi/ml, 48 hours
  Percentage of ^225Ac present in [^225Ac]Ac-DOTA-TATE: 96.08%
[2]; 15 μCi/ml, 72 hours
  Percentage of ^225Ac present in [^225Ac]Ac-DOTA-TATE: 98.74%
[2]; 15 μCi/ml, 96 hours
  Percentage of ^225Ac present in [^225Ac]Ac-DOTA-TATE: 94.83%
[2]; 15 μCi/ml, 120 hours
  Percentage of ^225Ac present in [^225Ac]Ac-DOTA-TATE: 93.49%
[2]; 32 μCi/ml, 0 hour
  Percentage of ^225Ac present in [^225Ac]Ac-DOTA-TATE: 99.39%
[2]; 32 μCi/ml, 24 hours
  Percentage of ^225Ac present in [^225Ac]Ac-DOTA-TATE: 97.92%
[2]; 32 μCi/ml, 48 hours
  Percentage of ^225Ac present in [^225Ac]Ac-DOTA-TATE: 97.13%
[2]; 32 μCi/ml, 72 hours
  Percentage of ^225Ac present in [^225Ac]Ac-DOTA-TATE: 95.31%
[2]; 32 μCi/ml, 96 hours
  Percentage of ^225Ac present in [^225Ac]Ac-DOTA-TATE: 92.52%
[2]; 32 μCi/ml, 120 hours
  Percentage of ^225Ac present in [^225Ac]Ac-DOTA-TATE: 85.90%
[2]; 68 μCi/ml, 0 hour
  Percentage of ^225Ac present in [^225Ac]Ac-DOTA-TATE: 99.06%
[2]; 68 μCi/ml, 24 hours
  Percentage of ^225Ac present in [^225Ac]Ac-DOTA-TATE: 98.22%
[2]; 68 μCi/ml, 48 hours
  Percentage of ^225Ac present in [^225Ac]Ac-DOTA-TATE: 95.93%
[2]; 68 μCi/ml, 72 hours
  Percentage of ^225Ac present in [^225Ac]Ac-DOTA-TATE: 95.36%
[2]; 68 μCi/ml, 96 hours
  Percentage of ^225Ac present in [^225Ac]Ac-DOTA-TATE: 86.92%
[2]; 126 μCi/ml, 0 hour
  Percentage of ^225Ac present in [^225Ac]Ac-DOTA-TATE: 99.11%
[2]; 126 μCi/ml, 24 hours
  Percentage of ^225Ac present in [^225Ac]Ac-DOTA-TATE: 95.77%
[2]; 126 μCi/ml, 48 hours
  Percentage of ^225Ac present in [^225Ac]Ac-DOTA-TATE: 84.99%
[2]; 301 μCi/ml, 0 hour
  Percentage of ^225Ac present in [^225Ac]Ac-DOTA-TATE: 99.09%
[2]; 301 μCi/ml, 24 hours
  Percentage of ^225Ac present in [^225Ac]Ac-DOTA-TATE: 97.53%
[2]; 301 μCi/ml, 48 hours
  Percentage of ^225Ac present in [^225Ac]Ac-DOTA-TATE: 88.78%
[2]; 550 μCi/ml, 0 hour
  Percentage of ^225Ac present in [^225Ac]Ac-DOTA-TATE: 98.87%
[2]; 550 μCi/ml, 24 hours
  Percentage of ^225Ac present in [^225Ac]Ac-DOTA-TATE: 97.04%
[2]; 550 μCi/ml, 48 hours
  Percentage of ^225Ac present in [^225Ac]Ac-DOTA-TATE: 85.63%
[3]; sodium ascorbate 1 mM, 0 hour, Radioactivity concentration at 1 mCi/ml
  Percentage of ^225Ac present in [^225Ac]Ac-DOTA-TATE: 99.76%
[3]; sodium ascorbate 1 mM, 24 hours, Radioactivity concentration at 1 mCi/ml
  Percentage of ^225Ac present in [^225Ac]Ac-DOTA-TATE: 91.11%
[3]; sodium ascorbate 1 mM, 48 hours, Radioactivity concentration at 1 mCi/ml
  Percentage of ^225Ac present in [^225Ac]Ac-DOTA-TATE: 52.06%
[3]; sodium ascorbate 10 mM, 0 hour, Radioactivity concentration at 1 mCi/ml
  Percentage of ^225Ac present in [^225Ac]Ac-DOTA-TATE: 99.78%
[3]; sodium ascorbate 10 mM, 24 hours, Radioactivity concentration at 1 mCi/ml
  Percentage of ^225Ac present in [^225Ac]Ac-DOTA-TATE: 92.21%
[3]; sodium ascorbate 10 mM, 48 hours, Radioactivity concentration at 1 mCi/ml
  Percentage of ^225Ac present in [^225Ac]Ac-DOTA-TATE: 86.11%
[3]; sodium ascorbate 100 mM, 0 hour, 0.02 mCi/ml, 0.05 mg/ml DTPA
  Percentage of ^225Ac present in [^225Ac]Ac-DOTA-TATE: 99.15%
[3]; sodium ascorbate 100 mM, 24 hours, 0.02 mCi/ml, 0.05 mg/ml DTPA
  Percentage of ^225Ac present in [^225Ac]Ac-DOTA-TATE: 98.76%
[3]; sodium ascorbate 100 mM, 48 hours, 0.02 mCi/ml, 0.05 mg/ml DTPA
  Percentage of ^225Ac present in [^225Ac]Ac-DOTA-TATE: 96.94%
[3]; sodium ascorbate 100 mM, 72 hours, 0.02 mCi/ml, 0.05 mg/ml DTPA
  Percentage of ^225Ac present in [^225Ac]Ac-DOTA-TATE: 96.16%
[3]; sodium ascorbate 100 mM, 96 hours, 0.02 mCi/ml, 0.05 mg/ml DTPA
  Percentage of ^225Ac present in [^225Ac]Ac-DOTA-TATE: 95.84%
[3]; sodium ascorbate 100 mM, 120 hours, 0.02 mCi/ml, 0.05 mg/ml DTPA
  Percentage of ^225Ac present in [^225Ac]Ac-DOTA-TATE: 95.44%
[3]; sodium ascorbate 100 mM, 144 hours, 0.02 mCi/ml, 0.05 mg/ml DTPA
  Percentage of ^225Ac present in [^225Ac]Ac-DOTA-TATE: 95.34%
[3]; sodium ascorbate 200 mM, 0 hour, 0.02 mCi/ml, 0.05 mg/ml DTPA
  Percentage of ^225Ac present in [^225Ac]Ac-DOTA-TATE: 99.22%
[3]; sodium ascorbate 200 mM, 24 hours, 0.02 mCi/ml, 0.05 mg/ml DTPA
  Percentage of ^225Ac present in [^225Ac]Ac-DOTA-TATE: 98.16%
[3]; sodium ascorbate 200 mM, 48 hours, 0.02 mCi/ml, 0.05 mg/ml DTPA
  Percentage of ^225Ac present in [^225Ac]Ac-DOTA-TATE: 97.12%
[3]; sodium ascorbate 200 mM, 72 hours, 0.02 mCi/ml, 0.05 mg/ml DTPA
  Percentage of ^225Ac present in [^225Ac]Ac-DOTA-TATE: 95.63%
[3]; sodium ascorbate 200 mM, 96 hours, 0.02 mCi/ml, 0.05 mg/ml DTPA
  Percentage of ^225Ac present in [^225Ac]Ac-DOTA-TATE: 95.51%
[3]; sodium ascorbate 200 mM, 120 hours, 0.02 mCi/ml, 0.05 mg/ml DTPA
  Percentage of ^225Ac present in [^225Ac]Ac-DOTA-TATE: 94.38%
[3]; sodium ascorbate 200 mM, 144 hours, 0.02 mCi/ml, 0.05 mg/ml DTPA
  Percentage of ^225Ac present in [^225Ac]Ac-DOTA-TATE: 91.27%

— patent US11819556B2, “Stabilized compositions of radionuclides and uses thereof” (RayzeBio, Inc., priority 2021, dated 2023)
